According to article PMC5473844, “Structural and Biochemical Characterization of Poly-ADP-ribose Polymerase from Trypanosoma brucei”:

What was measured:
[1] = molecular target: T1, TBP-FL (TbPARP full-length) (Trypanosoma brucei, UniProt Q0PW89 1-573); test: SEC-SAXS; 1:1 complex, non-activating DNA; FP: 10 mM HEPES pH 8, 0.1 mM TCEP, 0.1 mM EDTA, 175 mM NaCl, 25 C, 5 nM DNA (250 nM for stoichiometry); EMSA: 50 mM Tris pH 7, 0.1 mM TCEP, 0.1 mM EDTA, 5% glycerol, 100 mM NaCl, room temperature, 0.5 uM DNA; details: protein: recombinant; tags: 6xHis-thioredoxin tag removed with TEV; hairpin, 28 bp stem, TTTT loop, 3' overhang 4 nt
T1 sequence: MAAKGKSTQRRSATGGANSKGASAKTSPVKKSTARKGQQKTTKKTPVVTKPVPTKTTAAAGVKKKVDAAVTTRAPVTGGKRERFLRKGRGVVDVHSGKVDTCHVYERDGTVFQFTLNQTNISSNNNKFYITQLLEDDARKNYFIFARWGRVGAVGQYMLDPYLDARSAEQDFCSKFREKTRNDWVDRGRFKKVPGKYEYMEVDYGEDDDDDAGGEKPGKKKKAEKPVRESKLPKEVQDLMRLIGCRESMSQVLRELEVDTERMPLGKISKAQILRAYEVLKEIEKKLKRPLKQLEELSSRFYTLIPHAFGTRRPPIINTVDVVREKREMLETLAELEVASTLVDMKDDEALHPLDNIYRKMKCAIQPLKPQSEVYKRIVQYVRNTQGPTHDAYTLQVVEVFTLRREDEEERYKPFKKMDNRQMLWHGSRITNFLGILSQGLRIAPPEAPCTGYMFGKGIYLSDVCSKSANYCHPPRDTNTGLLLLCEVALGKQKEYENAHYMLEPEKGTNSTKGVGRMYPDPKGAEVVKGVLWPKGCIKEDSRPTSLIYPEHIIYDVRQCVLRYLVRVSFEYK

[2] = molecular target: T1, TBP-FL (TbPARP full-length); test: SEC-SAXS; 2:1 protein:DNA complex, activating DNA; FP: 10 mM HEPES pH 8, 0.1 mM TCEP, 0.1 mM EDTA, 175 mM NaCl, 25 C, 5 nM DNA (250 nM for stoichiometry); EMSA: 50 mM Tris pH 7, 0.1 mM TCEP, 0.1 mM EDTA, 5% glycerol, 100 mM NaCl, room temperature, 0.5 uM DNA; details: protein: recombinant; tags: 6xHis-thioredoxin tag removed with TEV; hairpin, 28 bp stem, TTTT loop, 3' overhang 4 nt
[3] = molecular target: T1, TBP-FL (TbPARP full-length); test: EMSA; higher protein needed for full supershift; FP: 10 mM HEPES pH 8, 0.1 mM TCEP, 0.1 mM EDTA, 175 mM NaCl, 25 C, 5 nM DNA (250 nM for stoichiometry); EMSA: 50 mM Tris pH 7, 0.1 mM TCEP, 0.1 mM EDTA, 5% glycerol, 100 mM NaCl, room temperature, 0.5 uM DNA; details: protein: recombinant; tags: 6xHis-thioredoxin tag removed with TEV; 3' overhang 4 nt (TCGA) on strand 1, other end blunt
[4] = molecular target: T2, TBP-N (Trypanosoma brucei, UniProt Q0PW89 1-100); test: EMSA; FP: 10 mM HEPES pH 8, 0.1 mM TCEP, 0.1 mM EDTA, 175 mM NaCl, 25 C, 5 nM DNA (250 nM for stoichiometry); EMSA: 50 mM Tris pH 7, 0.1 mM TCEP, 0.1 mM EDTA, 5% glycerol, 100 mM NaCl, room temperature, 0.5 uM DNA; details: protein: recombinant; tags: 6xHis tag removed with TEV; blunt
T2 sequence: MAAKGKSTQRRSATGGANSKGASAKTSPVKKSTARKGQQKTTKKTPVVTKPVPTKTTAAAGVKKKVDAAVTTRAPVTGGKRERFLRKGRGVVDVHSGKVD

[5] = molecular target: T1, TBP-FL (TbPARP full-length); test: as above; details: protein: recombinant; tags: 6xHis-thioredoxin tag removed with TEV; blunt
[6] = molecular target: T3, TBP-NW (Trypanosoma brucei, UniProt Q0PW89 1-197); test: as above; details: protein: recombinant; tags: 6xHis-thioredoxin tag removed with TEV; blunt
T3 sequence: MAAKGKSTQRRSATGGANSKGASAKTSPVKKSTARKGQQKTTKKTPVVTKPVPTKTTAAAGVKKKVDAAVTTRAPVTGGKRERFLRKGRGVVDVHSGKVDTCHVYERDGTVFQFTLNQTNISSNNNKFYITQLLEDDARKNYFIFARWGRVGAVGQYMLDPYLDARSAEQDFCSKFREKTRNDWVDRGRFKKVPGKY

[7] = molecular target: T1, TBP-FL (TbPARP full-length); test: fluorescence polarization (stoichiometry); 50 mM NaCl; non-specific, no clear inflection; FP: 10 mM HEPES pH 8, 0.1 mM TCEP, 0.1 mM EDTA, 175 mM NaCl, 25 C, 5 nM DNA (250 nM for stoichiometry); EMSA: 50 mM Tris pH 7, 0.1 mM TCEP, 0.1 mM EDTA, 5% glycerol, 100 mM NaCl, room temperature, 0.5 uM DNA; details: protein: recombinant; tags: 6xHis-thioredoxin tag removed with TEV; label: 5' FAM on strand 1; blunt
[8] = molecular target: T1, TBP-FL (TbPARP full-length); test: fluorescence polarization; low nanomolar affinity (value only in figure); 1:1; FP: 10 mM HEPES pH 8, 0.1 mM TCEP, 0.1 mM EDTA, 175 mM NaCl, 25 C, 5 nM DNA (250 nM for stoichiometry); EMSA: 50 mM Tris pH 7, 0.1 mM TCEP, 0.1 mM EDTA, 5% glycerol, 100 mM NaCl, room temperature, 0.5 uM DNA; details: protein: recombinant; tags: 6xHis-thioredoxin tag removed with TEV; label: 5' FAM; single strand

B1: template 14 (structured_DNA)
DNA: GCTCTAGTGTAGCATGAGCCTTAGCGCGTTTTCGCGCTAAGGCTCATGCTACACTAGAGCTCGA
binding result [1]: binds

B2: template 15 (structured_DNA)
DNA: B1 DNA
modifications: 5' phosphate
binding result [2]: binds

B3: template 6 (dsDNA)
DNA 1: CGCGCTAAGGCTCATGCTACACTAGAGCTCGA
DNA 2: GCTCTAGTGTAGCATGAGCCTTAGCGCG
modifications: 5' phosphate on strand 2
binding result [3]: binds

B4: template 1 (dsDNA)
DNA 1: CCAGGACCAGGGCGCAGATCACCTTGTTCTCCA
DNA 2: TGGAGAACAAGGTGATCTGCGCCCTGGTCCTGG
binding result [4]: binds
binding result [5]: binds
binding result [6]: binds

B5: template 20 (dsDNA)
DNA 1: CAGCAGGTACCTGCCCGGCGCCCAGAGAGGAATGCAACACTC
DNA 2: GAGTGTTGCATTCCTCTCTGGGCGCCGGGCAGGTACCTGCTG
binding result [7]: binds

CAGCAGGTACCTGCCCGGCGCCCAGAGAGGAATGCAACACTC (ssDNA) [template 21]
binding result [8]: binds
